Experimental findings from paper PMC6279779 are described below.

For experiment [1], the target named is soluble domain of Arabidopsis thaliana cytochrome c1 (Arabidopsis thaliana).
Experiment [2] shares this target. The source holds these as a separate data set.

For “Homo sapiens E104C cytochrome c mutant (from UniProt P99999 1-105) (natural protein)”, the distance decay factor (β) of the pCc1–hCc current after addition of wild-type hCc (12.5 μM, without C-terminal cysteine) to the medium, as an inhibition experiment in experiment [1] amounted to 3 nm^−1. The substance further registered an average distance decay factor (β) of the pCc1–hCc current against the electrochemical gate potential at 200 mV constant bias; minimum at −0.25 V EC gate potential in experiment [2] of 0.5 nm^−1.
